Target: T1, human RNF130 (GOLIATH) extracellular domain (human, UniProt Q86XS8 28-194, biotin (BirA biotinylation))
T1 construct: RNF130 (GOLIATH), human, extracellular domain (ECD); also called RNF130 ECD; source: Expi293F, purified (Ni-NTA, size-exclusion chromatography), biotinylated with BirA; not shown: AVI, C-terminal, kept
T1 sequence (looked up): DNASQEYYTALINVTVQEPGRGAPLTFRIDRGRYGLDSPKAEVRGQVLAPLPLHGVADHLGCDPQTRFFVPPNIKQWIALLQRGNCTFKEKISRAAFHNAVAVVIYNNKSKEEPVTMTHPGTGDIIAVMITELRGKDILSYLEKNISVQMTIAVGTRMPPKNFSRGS
Experiment: SPR; Biacore T100; biotinylated ECD (ligand) captured on a streptavidin (SA) series S chip, ~100-200 RU; non-biotinylated VHH as analyte in HBS-P+ buffer, twofold dilutions from 500 nM (RNF128 E2, RNF130 D1) or 1000 nM (RNF43 C8); injection 60 s at 30 ul/min, dissociation 240 s; regeneration 1 x 10 sec glycine pH 2.5; 1:1 Langmuir model or equilibrium
Details: both partners purified

B1: RNF130-D1 nanobody (VHH)
VHH: QVQLQESGGGLVQAGGSLRLSCAASGTISFIGYMGWYRQAPGKERELVASIASGTSTYYADSVKGRFTISRDNAKNTVYLQMNSLKPEDTAVYYCAATQYIQDVHRYWGQGTQVTVSS
notes: VHH selected from a synthetic yeast-display nanobody library against the human RNF130 ECD; Non-biotinylated analyte in SPR; source: Expi293F, purified (Ni-NTA, size-exclusion chromatography)
  Kd: 6.4 nM

— PMC10127277, “Receptor Elimination by E3 Ubiquitin Ligase Recruitment (REULR): A Targeted Protein Degradation Toolbox” (ACS Synthetic Biology, 2023)
